Experimental data: paper doi:10.1101/2020.01.13.904870 (bioRxiv, 2020)

Key:
[1] = target: Arabidopsis thaliana Fructosamine-3-kinase homolog (AtFN3K), wild type (Arabidopsis thaliana) (UniProt Q9LEW8); assay: SEC
[2] = target: AtFN3K C32A/C236A/C196A triple cysteine mutant (Arabidopsis thaliana); assay: AUC
[3] = target: AtFN3K C32A/C236A/C196A triple cysteine mutant (Arabidopsis thaliana); assay: SEC
non-reducing SDS-PAGE = target: the molecule itself; assay: non-reducing SDS-PAGE

Molecule: Arabidopsis thaliana Fructosamine-3-kinase homolog (AtFN3K), wild type (from UniProt Q9LEW8 31-326) (enzyme)
- stoichiometry N [1]: 2

Molecule: AtFN3K C32A/C236A/C196A triple cysteine mutant (enzyme)
- stoichiometry N [2]: 2
- stoichiometry N [3]: 2

B1: Recombinant His-HsFN3K (human Fructosamine-3-kinase), wild type (enzyme, UniProt Q9H479 1-309, looked up)
chain: MEQLLRAELRTATLRAFGGPGAGCISEGRAYDTDAGPVFVKVNRRTQARQMFEGEVASLEALRSTGLVRVPRPMKVIDLPGGGAAFVMEHLKMKSLSSQASKLGEQMADLHLYNQKLREKLKEEENTVGRRGEGAEPQYVDKFGFHTVTCCGFIPQVNEWQDDWPTFFARHRLQAQLDLIEKDYADREARELWSRLQVKIPDLFCGLEIVPALLHGDLWSGNVAEDDVGPIIYDPASFYGHSEFELAIALMFGGFPRSFFTAYHRKIPKAPGFDQRLLLYQLFNYLNHWNHFGREYRSPSLGTMRRLLK
- binding result (non-reducing SDS-PAGE): binds
